# In patent publication US20260193317A1, “COMBINATION THERAPY WITH ACTRIIB RECEPTOR VARIANTS AND GLP-1 AGONISTS” (35PHARMA Inc., priority 2023, published 2026):
# T1: BMP-10 (Homo sapiens, UniProt O95393)
# T1 sequence (O95393 317-424): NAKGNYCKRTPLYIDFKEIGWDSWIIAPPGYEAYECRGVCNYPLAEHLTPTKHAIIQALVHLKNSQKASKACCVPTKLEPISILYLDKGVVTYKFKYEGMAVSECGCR
# T2: BMP-9 (Homo sapiens, UniProt Q9UK05)
# T2 sequence (Q9UK05 320-429): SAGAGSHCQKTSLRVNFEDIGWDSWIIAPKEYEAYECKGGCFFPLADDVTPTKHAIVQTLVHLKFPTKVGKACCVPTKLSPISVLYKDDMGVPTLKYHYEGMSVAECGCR
# T3: activin A (Homo sapiens, UniProt P08476)
# T3 sequence (P08476 311-426): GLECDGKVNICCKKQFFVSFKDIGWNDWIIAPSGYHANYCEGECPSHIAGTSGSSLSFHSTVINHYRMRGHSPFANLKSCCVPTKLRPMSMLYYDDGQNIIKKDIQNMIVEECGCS
# T4: recombinant human activin A (human, UniProt P08476 311-426)
# T4 construct: also called R&D #338-AC
# T4 sequence (looked up): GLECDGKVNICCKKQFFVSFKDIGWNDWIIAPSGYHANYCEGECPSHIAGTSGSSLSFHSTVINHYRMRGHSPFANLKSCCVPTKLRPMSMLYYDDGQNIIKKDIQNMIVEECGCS
# T5: BMP-9 (UniProt Q9UK05 320-429)
# T5 sequence (looked up): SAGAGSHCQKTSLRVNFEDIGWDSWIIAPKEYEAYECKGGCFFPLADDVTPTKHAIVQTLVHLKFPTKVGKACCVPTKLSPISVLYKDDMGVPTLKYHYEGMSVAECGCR
# T6: BMP-10 (UniProt O95393 317-424)
# T6 sequence (looked up): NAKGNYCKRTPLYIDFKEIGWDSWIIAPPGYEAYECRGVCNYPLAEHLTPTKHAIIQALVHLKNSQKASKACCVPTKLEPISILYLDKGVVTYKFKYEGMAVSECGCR
# T7: activin B (UniProt P09529 293-407)
# T7 sequence (looked up): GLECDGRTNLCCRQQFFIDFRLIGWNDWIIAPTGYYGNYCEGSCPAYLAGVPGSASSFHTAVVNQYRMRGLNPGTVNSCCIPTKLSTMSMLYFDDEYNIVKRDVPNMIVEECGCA
# Assays:
# BMP-10 [1] = biological target: T1, BMP-10; assay: BMP-10 binding by bio-layer interferometry (BLI); settings: single concentration 12.5 nM BMP-10
# Description: To determine potency on BMP-10, the same BMP-reporter cell line was used as described above. A final concentration of 2.5 nM of each expressed protein was tested in the presence of 40 ng/mL of BMP-10 (R&D #2926-BP). In this assay, a loss of signal indicates neutralization of BMP-10 by the exemplary agent. Results are expressed as a % of the signal obtained with the cytokine alone. A separate assay was used to estimate BMP-10 binding, using bio-layer interferometry (BLI) on a Gator® Plus instrument (Gator Bio, Palo Alto, USA). An anti-Human IgG Fc Gen II probe (#160024, Gator Bio) was loaded with expressed proteins in CHO supernatants, following which BMP-10 binding kinetics (single concentration, 12.5 nM) were assessed.
# BMP-9 [2] = biological target: T2, BMP-9; assay: Small-scale BMP-9 ELISA with CHO supernatants; format: binding; settings: BMP-9 10 ng/mL
# Description: (§1) Small-scale testing of ActRIIB-ECD fusion proteins. Additional investigation of a series of exemplary agents was performed using proteins expressed in CHO cells. Briefly, DNA encoding the ActRIIB-ECD-Fc fusion constructs was transfected in cells seeded in 12-well plates in a final volume of 1 ml. After 7 days, the supernatant was harvested, clarified, and the amount of expressed protein in each well was quantified using standard methods. The potency of each agent for inhibition of activin A, BMP-9 and BMP-10 was determined in three separate assays.
# The next day, the plate was washed three times. […] Expressed proteins in the supernatants were diluted 1 in 2 in assay diluent (0.5% BSA, 0.05% tween-20 in PBS) and 100 μl was added to the 96-well plate in technical duplicates. After a 1.5-hour incubation at RT, the plate was washed three times. […] In this assay, a loss of signal indicates less binding of the exemplary agent to BMP-9. Results are expressed as a % of the signal obtained with wild-type ActRIIB-Fc (P75).
# BMP-10 [3] = biological target: T1, BMP-10; assay: Small-scale BMP-10 BMP-reporter cell-based assay, single concentration; settings: […] protein, 40 ng/mL BMP-10
# Description: Characterization of the BMP-9 and BMP-10 inhibition potency (IC50) of the fusion proteins was performed using a second cell-based reporter assay. Human hepatic HepG2 cells were transfected with a SEAP-encoding plasmid, in which SEAP expression is under the control of the murine Id1 promoter. A stable pool was generated from this transfection. Cells were grown in EMEM, containing 10% heat-inactivated FBS and 200 μg/mL zeocin (hereafter, “HepG2 growth medium”). […] For all assays, cells were seeded in 96-well plates at a confluence of 100,000 cells per well in HepG2 growth medium. Cells were left to attach for 10 minutes at RT prior to being transferred to a 37° C. incubator (5% CO2) overnight. […] At the end of the incubation, absorbance was read at 650 nm. […]
# Small-scale testing of ActRIIB-ECD fusion proteins. […] After 7 days, the supernatant was harvested, clarified, and the amount of expressed protein in each well was quantified using standard methods. The potency of each agent for inhibition of activin A, BMP-9 and BMP-10 was determined in three separate assays.
# To determine potency on BMP-10, the same BMP-reporter cell line was used as described above. […] Results are expressed as a % of the signal obtained with the cytokine alone. […]
# activin A = biological target: T3, activin A; assay: Small-scale activin A ELISA with CHO supernatants; settings: 1 μg/mL protein, 30 ng/mL activin A, loss of signal = binding
# Description: as §1
# The next day, the plate was washed three times with buffer (Biolegend #421601). […] Expressed proteins in the supernatants described above were diluted to 2 μg/mL in assay diluent (0.5% BSA, 0.05% tween-20 in PBS), mixed 1:1 with recombinant human activin A (R&D #338-AC, 60 ng/mL, diluted in assay diluent). Complexes were immediately added to the 96-well plate in technical duplicates and incubated for 1 h at RT (concentration of expressed protein and activin A on the plate were 1 μg/mL and 30 ng/mL, respectively). […] In this assay, a loss of signal indicates binding of the exemplary agent to activin A, which prevents activin A binding to the anti-activin A antibody on the plate. Results are expressed as a % of the signal obtained with wild-type ActRIIB-Fc (P75).
# [4] = tested on: follicle-stimulating hormone (FSH); assay: FSH production in DIO mice; format: in vivo; settings: 3 weeks of treatment
# Description: (§2) Experiments were performed to assess the effects of P1229 on body composition and metabolism in diet-induced obese (DIO) mice. DIO mice were purchased from Jackson Laboratories (#380050). Briefly, mice were fed a high-fat diet (HFD, 60% kcal from fat) from 6 weeks of age until 22 weeks of age (total of 16 weeks on the HFD). […] After 3 weeks of treatments, some animals were sacrificed and scanned by EchoMRI […] (FIGS. 11A-F), while others were sacrificed for tissue collection and RNA analysis. Animals were maintained on the HFD throughout the acclimatization and treatment periods. The murine version of bimagrumab used for these experiments comprises the heavy chain amino acid sequence of SEQ ID NO: 376 and the light chain sequence of SEQ ID NO: 377.
# Follicle-stimulating hormone (FSH) is a known biomarker of in vivo target engagement for activin receptor-based traps (See Attie et al. (2013). Muscle Nerve, 47: 416-423). To further validate in vivo target engagement for exemplary agents, FSH production was evaluated in DIO mice, as described above.
# DIO mice = assay: Body composition in high fat diet mice, alone and in combination with incretin mimetics; format: in vivo
# Description: Experiments were performed in vivo to investigate the potential for additive or synergistic effects between exemplary ActRIIB-ECD polypeptide constructs and incretin mimetics.
# [5] = tested on: diet-induced obese (DIO) mice; assay: Body composition and metabolism in diet-induced obese (DIO) mice; format: in vivo
# Description: as §2
# [6] = biological target: T4, recombinant human activin A; assay: direct ELISA, activin A coated, anti-human Fc-HRP; co-formulation with semaglutide, D 7 at room temperature
# Description: (§3) In each case, the following parameters were assessed: a) monomer content (size exclusion chromatography), b) activin A and GDF-8 neutralization (cell-based assays [CBAs]), c) activin A binding (ELISA), d) GLP-1 receptor binding (ELISA).
# (§4) Potency testing by ELISA. […] Blocking buffer (1% BSA, 0.05% tween-20 in PBS, 300 μL/well) was added to each well and the plate was incubated for 1 hour at RT. Starting at 2.5 μg/mL, test agents were diluted in assay diluent (1% BSA, 0.05% tween-20 in PBS, 100 μL/well) and loaded on the plate for 1 h at RT.
# [7] = biological target: T4, recombinant human activin A; assay: direct ELISA, activin A coated, anti-human Fc-HRP; co-formulation with semaglutide, D 0
# Description: as §3, §4
# BMP-9 [8] = biological target: T5, BMP-9; assay: cell-based or functional assay
# BMP-10 [9] = biological target: T6, BMP-10; assay: cell-based or functional assay
# [10] = biological target: T4, recombinant human activin A; assay: direct ELISA, activin A coated, anti-human Fc-HRP; co-formulation with semaglutide, D 28 at room temperature
# Description: as §3, §4
# [11] = biological target: T4, recombinant human activin A; assay: direct ELISA, activin A coated, anti-human Fc-HRP; co-formulation with semaglutide, D 7 at 2-8°C
# Description: as §3, §4
# [12] = biological target: T4, recombinant human activin A; assay: cell-based or functional assay
# activin B = biological target: T7, activin B; assay: cell-based or functional assay
# GDF-8 = GDF-8 (UniProt O14793 267-375); assay: cell-based or functional assay
# GDF-11 = GDF-11 (UniProt O95390 299-407); assay: cell-based or functional assay
# [13] = biological target: T4, recombinant human activin A; assay: direct ELISA, activin A coated, anti-human Fc-HRP; co-formulation with semaglutide, D 28 at 2-8°C
# Description: as §3, §4
# GDF-11, sequence (O95390 299-407 limits assumed): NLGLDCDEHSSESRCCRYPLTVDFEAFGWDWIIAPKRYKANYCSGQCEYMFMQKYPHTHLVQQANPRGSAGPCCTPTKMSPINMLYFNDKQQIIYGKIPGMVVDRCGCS
molecule,measurement,setting,value
"P444: WT hActRIIA, 3 aa linker (GGG), IgG1 Fc; SEQ ID 173 [reference compound]",BMP-10 KD by bio-layer interferometry,BMP-10 [1],higher KD (lower affinity) than P75
same,"BMP-9 binding, ELISA signal relative to P75",BMP-9 [2],near undetectable binding to BMP-9
same,"BMP-10 neutralization, signal relative to BMP-10 alone",BMP-10 [3],"less neutralization (i.e., greater signal) than P75"
same,"activin A binding, ELISA signal relative to P75",activin A,comparable activin A binding profile to P75
"P1307: murine version of bimagrumab, an antibody targeting ActRIIB and ActRIIA; heavy chain SEQ ID NO: 376, light chain SEQ ID NO: 377 (antibody) heavy: MDWTWRILFLVAAATGTHAQVQLVQSGAEVKKPGASVKVSCKASGYTFTSSYINWVRQAPGQGLEWMGTINPVSGSTSYAQKFQGRVTMTRDTSISTAYMELSSLRSEDTAVYYCARGGWFDYWGQGTLVTVSSAKTTAPSVYPLAPVCGDTTGSSVTLGCLVKGYFPEPVTLTWNSGSLSSGVHTFPAVLQSDLYTLSSSVTVTSSTWPSQSITCNVAHPASSTKVDKKIEPRGPTIKPCPPCKCPAPNAAGGPSVFIFPPKIKDVLMISLSPIVTCVVVDVSEDDPDVQISWFVNNVEVHTAQTQTHREDYNSTLRVVSALPIQHQDWMSGKEFKCKVNNKDLPAPIERTISKPKGSVRAPQVYVLPPPEEEMTKKQVTLTCMVTDFMPEDIYVEWTNNGKTELNYKNTEPVLDSDGSYFMYSKLRVEKKNWVERNSYSCSVVHEGLHNHHTTKSFSRTPGK light: MVLQTQVFISLLLWISGAYGDIALTQPASVSGSPGQSITISCTGTSSDVGSYNYVNWYQQHPGKAPKLMIYGVSKRPSGVSNRFSGSKSGNTASLTISGLQAEDEADYYCGTFAGGSYYGVFGGGTKLTVLGQPKSTPTLTVFPPSSEELKENKATLVCLISNFSPSGVTVAWKANGTPITQGVDTSNPTKEGNKFMASSFLHLTSDQWRSHNSFTCQVTHEGDTVEKSLSPAECL",FSH production,[4],significant decreases in FSH production
same,Body weight (% change from baseline),"DIO mice; DIO mice, 21 days s.c., P1307 20 mg/kg weekly, P1229 40 mg/kg twice weekly, semaglutide 40 μg/kg daily, tirzepatide 45 μg/kg daily, alone or combined",+5.4%
same,"visceral, epididymal, pericardial, peri-renal, and retroperitoneal white adipose tissue weights","DIO mice; DIO mice, D21",not significantly affected
same,gastrocnemius and tibialis anterior weights,"DIO mice; DIO mice, D21, P1229 with or without caloric restriction",significantly increased
same,Fat mass (% change from baseline),"DIO mice; as E44, NMR",−5.7%
same,Lean mass (% change from baseline),"DIO mice; as E44, NMR",+12.3%
same,Lean mass/fat mass ratio,"DIO mice; as E44, NMR",1.4
same,hepatic Ahsg expression,[5],reduced Ahsg expression
same,hepatic Fgf21 expression,[5],reduced
same,hepatic Inhbe expression,[5],significantly decreased Inhbe expression
same,Mss51 gene expression in gastrocnemius muscle,[5]; 3 weeks,reduced Mss51 gene expression
same,fat mass and lean mass (EchoMRI),"[5]; 3 weeks s.c., P75, P1229 25 mg/kg twice weekly, P1373 5, 20, 50 mg/kg twice weekly, P1307 20 mg/kg weekly",promoted lean mass gain but less fat loss
"P1372 (Fc fusion, also tested in co-formulation with semaglutide, tirzepatide or retatrutide; also called ActRIIB ligand trap P1372) ETRECIYYNANWELERTNQSGLERCEGEQDKRWHCYASWRNSSGTIELVKKGCWLDDFNCYDRQECVATEENPQVYFCCCEGNFCNERFTHLPEAGGPEVTYEPPPTGGGGSGGGGSGGGGTHTCPPCPAPELLGGPSVFLFPPKPKDTLYITREPEVTCVVVDVSHEDPEVKFNWYVDGVEVHNAKTKPREEQYNSTYRVVSVLTVLHQDWLNGKEYKCKVSNKALPAPIEKTISKAKGQPREPQVYTLPPSRDELTKNQVSLTCLVKGFYPSDIAVEWESNGQPENNYKTTPPVLDSDGSFFLYSKLTVDKSRWQQGNVFSCSVMHEALHNHYTQKSLSLSPG",ELISA potency fold-change vs P1372 alone (ref = 1),[6],1.4 fold
same,ELISA potency fold-change vs P1372 alone (ref = 1),[7],0.98 fold
same,BMP-9 IC50; BMP-reporter HepG2 cells,BMP-9 [8],> 1000 nM
same,BMP-10 IC50; BMP-reporter HepG2 cells,BMP-10 [9],> 100 nM
same,ELISA potency fold-change vs P1372 alone (ref = 1),[10],0.79 fold
same,ELISA potency fold-change vs P1372 alone (ref = 1),[11],0.85 fold
same,Activin A IC50; TGFβ-reporter HEK293 cells,[12],0.56 nM
same,Activin B IC50; TGFβ-reporter HEK293 cells,activin B,2 nM
same,GDF-8 IC50; TGFβ-reporter HEK293 cells,GDF-8,0.18 nM
same,GDF-11 IC50; TGFβ-reporter HEK293 cells,GDF-11,0.53 nM
same,ELISA potency fold-change vs P1372 alone (ref = 1),[13],1.3 fold
